Data: patent publication US20200324099A1, “ACOUSTIC WAVE MEDIATED NON-INVASIVE DRUG DELIVERY” (Mupharma Pty Ltd, priority 2016, published 2020)
Structures can show the parent of a compound that is named as a salt. Where two headings read alike, the source gives them in different places.

What was measured:
[1] = SAW (30 MHz) perfusion of FITC-Albumin and Fluorescein in pig lip tissue (Example Three); format: in vitro ADME; settings: for perfusion into pig lip tissue with SAW: SAW 30 MHz, different exposure times and powers; for passive diffusion into pig lip tissue (control sample): no SAW
Description: In this set of experiments, the effect of surface acoustic wave (SAW) at 30 MHz on FITC-Albumin and Fluorescein perfusion for different SAW powers and operating time was investigated.
Fluorescein sodium salt and FITC-Albumin were purchased from Sigma-Aldrich, Australia. Fresh porcine lips were obtained from diamond valley pork abattoir (Laverton, Melbourne) prior to the experiments. Surface acoustic wave (SAW) chip patterning of Chromium and Aluminum interdigital transducers (IDT) were fabricated using standard lithographic techniques at Micro Nano Research Facility (MNRF), RMIT University.
The lips were wrapped in sterile gauze saturated in Krebs buffer during transportation to maintain the viability of the tissues. […] The porcine lips were exposed to various molecules with and without the surface acoustic waves (SAW). The lips were washed immediately after the experiments to get rid of any reminent targeting molecules.
Samples were wrapped in aluminium foil and stored at −80 degree until dermatomed. The tissues were dermatomed in a cryostat at a thickness of 50-micron layer until 1 mm for extensive penetration studies.
Tissue sectioning was performed at RMIT Bundoora and Melbourne University campuses. Fluorescent images of the samples were obtained using optical microscope (×10 lens), consistent light exposure of 600 ms. Acquired images were then quantified using ImageJ software to calculate the normalized pixel intensity of the green channel.
The model drug (FITC-albumin and fluorescein) used was placed directly on the device throughout the experiments. Fresh lips were approximately dissected into a 1 cm*1 cm cube and was placed on the drug. No coupling agent or loading substrate was used to transmit the vibrations from device into tissues. The inter-digital electrodes (IDTs) patterned on the lithium niobate (piezoelectric substrate) generated surface waves (SAW), which in turn drives the model drugs into the tissues. (FIG. 12)

[2] = rat, in vivo
Procedure: All experiments were conducted in accordance with the ARVO Statement for Use of Animals in Ophthalmic and Vision Research and with approval from the ANU Animal Experimentation Ethics Committee (Ethics ID: A2014/56). Adult Wistar rats were utilised in all experiments, which were born and reared under normal lighting conditions (˜5 lux light) and aged between 90 and 120 post-natal days at the time of use. Wistar rats were anaesthetised with an intraperitoneal injection of ketamine (100 mg/kg; Troy Laboratories, NSW, Australia) and Xylazil (12 mg/kg; Troy Laboratories). Once anaesthetised, Systane eye drops (Alcon, TX, USA) were applied every 2 minutes to maintain corneal lubrication. Animals were placed on a heat blanket to maintain body temperature at 37° C. and a cotton eye loop was applied around the eye to expose the anterior surface.
The inventors' HFB device (with A.A Lab Systems A-301 HS HV amplifier and RIGOL DG4062 Function/Arbitrary Waveform Generator) was loaded with 0.2% Riboflavin-5-phosphate-sodium (Riboflavin-5-phosphate-sodium-5-phosphate sodium #30-1598-25GM; PCCA, TX, USA), made up in sterile saline (0.9% NaCl), and applied to the centre of the cornea for 5 minutes. The settings on the device were as follows: transducer—1.6 MHz; amplifier—DC offset=off position; waveform generator—60 KHz sine waveform. The device was run for 5 minutes at 0, 3, 11 or 13 voltage peak to peak (VPP). […] Therefore, an electric circuit between the device and the eye tissue was not created.
Following delivery, the residual Riboflavin-5-phosphate-sodium was washed from the eye with normal saline. The animal was euthanized, the eyes removed and the eyes fixed in 4% paraformaldehyde for 5 minutes before being cryopreserved and immediately sectioned at 16 μm thickness.
Sections were visualised under a Nikon A1 confocal microscope using the green 488 channel and imaged using the 10× objective. Data analysis for quantification was performed with an n=3 with 8 regions per section, with the gain of the laser set to optimal fluorescence for the brightest section (gain setting 110) and maintained for all imaging.

[3] = for SAW samples pixel intensity: SAW approximately 4V; for SAW samples pixel intensity / Control samples pixel intensity: 5 s exposure, 30 μg/ml; for Control samples pixel intensity: no acoustic waves (0 mV)
Procedure: The SAW device 10 illustrated in FIG. 1 was used to controllably deliver albumin-fluorescein isothiocyanate (FITC-albumin) across epithelial membranes of pig lips. Fresh lips tissues from pigs were obtained from a slaughterhouse. The experiments were conducted within 2 hours after the animals were sacrificed. The porcine lips were exposed to FITC-albumin molecules with and without the acoustic waves. The exposure time was 5 s for both control and SAW experiments. The power or voltage was maintained at 0 mV (no voltage) for control, and approximately 4V for SAW experiments. The concentration and the amount of FITC-Albumin (30 μg/ml) used was maintained constant throughout the penetration depth study.
The fresh tissues were further snap frozen in isopentane chilled by liquid nitrogen with the aid of optimal cutting temperature compound (OCT) as the embedding medium. Samples were further wrapped in aluminium foil and stored at −80° C. until sectioned by a dermatome. The tissues were sectioned by a dermatome in a cryostat to create samples of contiguous layers of tissue of 50 μm thickness.
Fluorescent images of the samples were obtained and quantified using Image J software to calculate the normalised pixel intensity of the green channel.

O=C1OC2(c3ccc(O)cc3Oc3cc(O)ccc32)c2ccccc21 [Fluorescein, Fluorescein sodium salt]
perfusion into pig lip tissue with SAW [1]: showed an improvement, especially for longer exposure time | passive diffusion into pig lip tissue (control sample) [1]: prevalent

Cc1cc2nc3c(=O)[nH]c(=O)nc-3n(C[C@H](O)[C@H](O)[C@H](O)COP(=O)([O-])O)c2cc1C.[Na+] [Riboflavin-5-phosphate-sodium]
concentrations in posterior iris, ciliary body and choroid [2]: significant concentrations | delivery to the posterior segment of the eye [2]: concentrated in the uveal tract | fluorescence in anterior chamber and vitreous [2]: did not show any fluorescence | increase in average relative fluorescence intensity (RFI), treated versus control cornea [2]: ~4 times

albumin-fluorescein isothiocyanate [FITC-albumin]
depth of delivery across the epithelial layers of the pig lips ([3]; SAW device, 5 s, tissue deeper than 500 μm not examined): 500 μm | diffusion through the layers of the pig lips ([3]; control, no acoustic waves, 5 s): diffused evenly and uniformly through the layers of the pig lips | SAW samples pixel intensity ([3]; layer 100 μm): 37.192 | Control samples pixel intensity ([3]; layer 100 μm): 7.52 | SAW samples pixel intensity ([3]; layer 150 μm): 19.733 | Control samples pixel intensity ([3]; layer 150 μm): 7.421 | SAW samples pixel intensity ([3]; layer 200 μm): 19.835 | Control samples pixel intensity ([3]; layer 200 μm): 6.617 | SAW samples pixel intensity ([3]; layer 250 μm): 14.041 | Control samples pixel intensity ([3]; layer 250 μm): 6.126 | SAW samples pixel intensity ([3]; layer 300 μm): 11.229 | Control samples pixel intensity ([3]; layer 300 μm): 7.488 | SAW samples pixel intensity ([3]; layer 350 μm): 16.047 | Control samples pixel intensity ([3]; layer 350 μm): 7.405 | SAW samples pixel intensity ([3]; layer 400 μm): 12.274 | Control samples pixel intensity ([3]; layer 400 μm): 7.589 | SAW samples pixel intensity ([3]; layer 450 μm): 9.935 | Control samples pixel intensity ([3]; layer 450 μm): 6.886 | SAW samples pixel intensity ([3]; layer 500 μm): 9.958 | Control samples pixel intensity ([3]; layer 500 μm): 7.715 | perfusion into pig lip tissue with SAW [1]: outstanding perfusion compared to passive diffusion | passive diffusion into pig lip tissue (control sample) [1]: hardly any diffusion
